Experiment [1] has as its target T1, purified recombinant human alpha synuclein fibrils (human, UniProt P37840 1-140). Nature of the experiment: SPR, Biacore T200, as in Example 3; Fab injected.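 Note: ligands amine-coupled on CM5 chip flow cells, HBS-EP+ running buffer, kinetic data fitted with 1:1 model allowing local bulk contribution and global Rmax.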
Method: (§1) Interaction kinetics were determined by using surface plasmon resonance technology on a Biacore T200 instrument. Three different ligands including recombinant full-length human alpha synuclein monomer, purified recombinant human alpha synuclein fibrils, and purified recombinant mouse alpha synuclein fibrils, prepared as described herein, were each immobilized on three different flow cells of a CM5 chip surface using amine-coupling chemistry. The three ligands were prepared in 10 mM NaAc, pH 3.5, and immobilized onto separate flow cell surfaces to reach an immobilization level of about 30 response units (RU) for alpha synuclein monomer, about 40 RU for human alpha synuclein fibrils, and about 300 RU for mouse alpha synuclein fibrils respectively, at a flow rate of 10 μI/min. The buffer HBS-EP+(GE healthcare Bio-Sciences AB) was used as running buffer for both ligand immobilization and kinetics assay. […] The surface was regenerated by one injection of 50 mM HCl for 90 s at 10 μI/min, and another injection of 50 mM HCl for 60 s at 10 μI/min. The data were analyzed using the Biacore T200 evaluation software (version 3.0) using the bivalent analyte model with assumed no bulk contribution (RI=0) and global Rmax for IgG format, and 1:1 model with flexible bulk contribution (local RI) and global Rmax.
Experiment [2] addresses recombinant full-length human alpha synuclein monomer (human, UniProt P37840 1-140). Kind of experiment: SPR, Biacore T200, as in Example 3; Fab injected.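 Note: ligands amine-coupled on CM5 chip flow cells, HBS-EP+ running buffer, kinetic data fitted with 1:1 model allowing local bulk contribution and global Rmax.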
Method: as §1
The target of experiment [3] is T1, purified recombinant human alpha …. Kind of experiment: affinity for human alpha synuclein fibrils, IgG4P; method not given.

Among the data in patent US20210107971A1 (UCB, published 2021) are Kd, koff and kon values, retold here.

B1: 6470 rabbit Fab with heavy chain mutation H31K (Fab, V domains shown)
VH: QSVEESGGRLVTPGTPLTLTCTVSGIDLSSKDMYWVRQAPGKGLEYIGAIYASGSTYYASWAKGRFTISKTSTTVDLKMTSLTTEDTATYFCARIHYGNSGGLWGQGTLVTVSS
VL: AIVMTQTPSSKSVAVGDTVTINCQASQSVYKNNYLAWFQQKPGQPPKQLIYGASTLASGVPSRFKGSGSGTQFTLTISDVVCDDAATYYCAGYKGGRNDGFAFGGGTEVVVKR
B1: in experiment [1], the Kd came out at 46.7 nM, the koff came out at 0.423 s⁻¹ and the kon is 9.06e+06 M⁻¹ s⁻¹. Besides, in experiment [2], the Kd was 152 nM, the koff was 0.938 s⁻¹ and the kon came to 6.17e+06 M⁻¹ s⁻¹.

B2: 6470 rabbit Fab with heavy chain mutation H31Q (Fab, V domains shown)
VH: QSVEESGGRLVTPGTPLTLTCTVSGIDLSSQDMYWVRQAPGKGLEYIGAIYASGSTYYASWAKGRFTISKTSTTVDLKMTSLTTEDTATYFCARIHYGNSGGLWGQGTLVTVSS
VL: AIVMTQTPSSKSVAVGDTVTINCQASQSVYKNNYLAWFQQKPGQPPKQLIYGASTLASGVPSRFKGSGSGTQFTLTISDVVCDDAATYYCAGYKGGRNDGFAFGGGTEVVVKR
Consider B2, for which, in experiment [1], the Kd was 12.4 nM, the koff worked out at 0.0972 s⁻¹ and the kon was determined as 7.83e+06 M⁻¹ s⁻¹. Also, in experiment [2], the Kd came to 23.1 nM, the koff worked out at 0.185 s⁻¹ and the on-rate (kon) turned out to be 8e+06 M⁻¹ s⁻¹.

B3: 6470 rabbit Fab with light chain mutation N33R (Fab, V domains shown)
VH: QSVEESGGRLVTPGTPLTLTCTVSGIDLSSHDMYWVRQAPGKGLEYIGAIYASGSTYYASWAKGRFTISKTSTTVDLKMTSLTTEDTATYFCARIHYGNSGGLWGQGTLVTVSS
VL: AIVMTQTPSSKSVAVGDTVTINCQASQSVYKNRYLAWFQQKPGQPPKQLIYGASTLASGVPSRFKGSGSGTQFTLTISDVVCDDAATYYCAGYKGGRNDGFAFGGGTEVVVKR
As to B3, in experiment [1], the Kd was determined as 2.9 nM, the koff came to 0.0289 s⁻¹ and the kon was found to be 9.98e+06 M⁻¹ s⁻¹. In experiment [2], the koff was 0.0799 s⁻¹ and the kon stood at 1.92e+07 M⁻¹ s⁻¹.

B4: 6470 rabbit Fab with light chain mutation N33K (Fab, V domains shown)
VH: QSVEESGGRLVTPGTPLTLTCTVSGIDLSSHDMYWVRQAPGKGLEYIGAIYASGSTYYASWAKGRFTISKTSTTVDLKMTSLTTEDTATYFCARIHYGNSGGLWGQGTLVTVSS
VL: AIVMTQTPSSKSVAVGDTVTINCQASQSVYKNKYLAWFQQKPGQPPKQLIYGASTLASGVPSRFKGSGSGTQFTLTISDVVCDDAATYYCAGYKGGRNDGFAFGGGTEVVVKR
B4: in experiment [1], the Kd is 7.1 nM, the koff was 0.0498 s⁻¹ and the kon was determined as 6.93e+06 M⁻¹ s⁻¹. Further, in experiment [2], the dissociation constant Kd was found to be 15.2 nM, the koff is 0.0433 s⁻¹ and the on-rate constant (kon) was determined as 2.84e+06 M⁻¹ s⁻¹.

B5: 6470 rabbit Fab with heavy chain mutation N99H (Fab, V domains shown)
VH: QSVEESGGRLVTPGTPLTLTCTVSGIDLSSHDMYWVRQAPGKGLEYIGAIYASGSTYYASWAKGRFTISKTSTTVDLKMTSLTTEDTATYFCARIHYGHSGGLWGQGTLVTVSS
VL: AIVMTQTPSSKSVAVGDTVTINCQASQSVYKNNYLAWFQQKPGQPPKQLIYGASTLASGVPSRFKGSGSGTQFTLTISDVVCDDAATYYCAGYKGGRNDGFAFGGGTEVVVKR
Take B5: in experiment [1], the Kd came to 0.4 nM, the koff was determined as 0.00401 s⁻¹ and the kon was determined as 6.2e+06 M⁻¹ s⁻¹. Besides, in experiment [2], the Kd was determined as 0.7 nM, the koff stood at 0.00745 s⁻¹ and the on-rate constant (kon) worked out at 1.33e+07 M⁻¹ s⁻¹.

B6: 6470 rabbit Fab with heavy chain mutation N99K (Fab, V domains shown)
VH: QSVEESGGRLVTPGTPLTLTCTVSGIDLSSHDMYWVRQAPGKGLEYIGAIYASGSTYYASWAKGRFTISKTSTTVDLKMTSLTTEDTATYFCARIHYGKSGGLWGQGTLVTVSS
VL: AIVMTQTPSSKSVAVGDTVTINCQASQSVYKNNYLAWFQQKPGQPPKQLIYGASTLASGVPSRFKGSGSGTQFTLTISDVVCDDAATYYCAGYKGGRNDGFAFGGGTEVVVKR
With B6, in experiment [1], the Kd is 20.7 nM, the koff stood at 0.207 s⁻¹ and the kon is 1.58e+07 M⁻¹ s⁻¹. For the same molecule, in experiment [2], the Kd came out at 23.9 nM, the koff was determined as 0.189 s⁻¹ and the kon turned out to be 7.89e+06 M⁻¹ s⁻¹.

B7: 6470 rabbit Fab with heavy chain mutation H31R (Fab, V domains shown)
VH: QSVEESGGRLVTPGTPLTLTCTVSGIDLSSRDMYWVRQAPGKGLEYIGAIYASGSTYYASWAKGRFTISKTSTTVDLKMTSLTTEDTATYFCARIHYGNSGGLWGQGTLVTVSS
VL: AIVMTQTPSSKSVAVGDTVTINCQASQSVYKNNYLAWFQQKPGQPPKQLIYGASTLASGVPSRFKGSGSGTQFTLTISDVVCDDAATYYCAGYKGGRNDGFAFGGGTEVVVKR
For B7, in experiment [1], the Kd was found to be 62.3 nM, the off-rate (koff) was found to be 0.373 s⁻¹ and the kon is 5.98e+06 M⁻¹ s⁻¹. Also, in experiment [2], the Kd was 1660 nM, the koff is 0.44 s⁻¹ and the kon was 265000 M⁻¹ s⁻¹.

B8: 6470 rabbit Fab with heavy chain mutation S53N (Fab, V domains shown)
VH: QSVEESGGRLVTPGTPLTLTCTVSGIDLSSHDMYWVRQAPGKGLEYIGAIYANGSTYYASWAKGRFTISKTSTTVDLKMTSLTTEDTATYFCARIHYGNSGGLWGQGTLVTVSS
VL: AIVMTQTPSSKSVAVGDTVTINCQASQSVYKNNYLAWFQQKPGQPPKQLIYGASTLASGVPSRFKGSGSGTQFTLTISDVVCDDAATYYCAGYKGGRNDGFAFGGGTEVVVKR
For B8, in experiment [1], the Kd is 49.6 nM, the koff stood at 0.286 s⁻¹ and the kon was 5.75e+06 M⁻¹ s⁻¹. In experiment [2], the dissociation constant Kd was determined as 1130 nM, the koff amounted to 0.0517 s⁻¹ and the kon was found to be 45600 M⁻¹ s⁻¹.

B9: 6470 rabbit Fab with heavy chain mutation N99W (Fab, V domains shown)
VH: QSVEESGGRLVTPGTPLTLTCTVSGIDLSSHDMYWVRQAPGKGLEYIGAIYASGSTYYASWAKGRFTISKTSTTVDLKMTSLTTEDTATYFCARIHYGWSGGLWGQGTLVTVSS
VL: AIVMTQTPSSKSVAVGDTVTINCQASQSVYKNNYLAWFQQKPGQPPKQLIYGASTLASGVPSRFKGSGSGTQFTLTISDVVCDDAATYYCAGYKGGRNDGFAFGGGTEVVVKR
Consider B9, for which, in experiment [1], the Kd worked out at 25.3 nM, the koff was determined as 0.134 s⁻¹ and the kon came out at 5.27e+06 M⁻¹ s⁻¹. Also, in experiment [2], the equilibrium dissociation constant (Kd) was found to be 61.3 nM, the off-rate (koff) was 0.566 s⁻¹ and the kon was determined as 9.22e+06 M⁻¹ s⁻¹.

B10: 6470 rabbit Fab with heavy chain mutation S55N (Fab, V domains shown)
VH: QSVEESGGRLVTPGTPLTLTCTVSGIDLSSHDMYWVRQAPGKGLEYIGAIYASGNTYYASWAKGRFTISKTSTTVDLKMTSLTTEDTATYFCARIHYGNSGGLWGQGTLVTVSS
VL: AIVMTQTPSSKSVAVGDTVTINCQASQSVYKNNYLAWFQQKPGQPPKQLIYGASTLASGVPSRFKGSGSGTQFTLTISDVVCDDAATYYCAGYKGGRNDGFAFGGGTEVVVKR
For the molecule B10, in experiment [1], the Kd was found to be 1.4 nM, the koff was 0.013 s⁻¹ and the kon was 9.2e+06 M⁻¹ s⁻¹. For the same molecule, in experiment [2], the Kd worked out at 1.9 nM, the koff worked out at 0.0191 s⁻¹ and the kon was found to be 1.39e+07 M⁻¹ s⁻¹.

B11: 6470 rabbit Fab with heavy chain mutation N99R (Fab, V domains shown)
VH: QSVEESGGRLVTPGTPLTLTCTVSGIDLSSHDMYWVRQAPGKGLEYIGAIYASGSTYYASWAKGRFTISKTSTTVDLKMTSLTTEDTATYFCARIHYGRSGGLWGQGTLVTVSS
VL: AIVMTQTPSSKSVAVGDTVTINCQASQSVYKNNYLAWFQQKPGQPPKQLIYGASTLASGVPSRFKGSGSGTQFTLTISDVVCDDAATYYCAGYKGGRNDGFAFGGGTEVVVKR
Regarding B11, in experiment [1], the Kd was found to be 15.3 nM, the koff was determined as 0.154 s⁻¹ and the kon turned out to be 1.89e+07 M⁻¹ s⁻¹. For the same molecule, in experiment [2], the Kd was found to be 16.9 nM, the koff stood at 0.17 s⁻¹ and the kon was 1.22e+07 M⁻¹ s⁻¹.

B12: 6470 rabbit Fab with light chain mutation Y30W (Fab, V domains shown)
VH: QSVEESGGRLVTPGTPLTLTCTVSGIDLSSHDMYWVRQAPGKGLEYIGAIYASGSTYYASWAKGRFTISKTSTTVDLKMTSLTTEDTATYFCARIHYGNSGGLWGQGTLVTVSS
VL: AIVMTQTPSSKSVAVGDTVTINCQASQSVWKNNYLAWFQQKPGQPPKQLIYGASTLASGVPSRFKGSGSGTQFTLTISDVVCDDAATYYCAGYKGGRNDGFAFGGGTEVVVKR
As to B12, in experiment [1], the Kd amounted to 18.8 nM, the off-rate (koff) came to 0.0895 s⁻¹ and the kon is 4.75e+06 M⁻¹ s⁻¹. Moreover, in experiment [2], the Kd is 50.4 nM, the koff turned out to be 0.151 s⁻¹ and the kon came to 2.99e+06 M⁻¹ s⁻¹.

B13: 6470 rabbit Fab with heavy chain mutation N99Q (Fab, V domains shown)
VH: QSVEESGGRLVTPGTPLTLTCTVSGIDLSSHDMYWVRQAPGKGLEYIGAIYASGSTYYASWAKGRFTISKTSTTVDLKMTSLTTEDTATYFCARIHYGQSGGLWGQGTLVTVSS
VL: AIVMTQTPSSKSVAVGDTVTINCQASQSVYKNNYLAWFQQKPGQPPKQLIYGASTLASGVPSRFKGSGSGTQFTLTISDVVCDDAATYYCAGYKGGRNDGFAFGGGTEVVVKR
Take B13: in experiment [1], the Kd was determined as 42.4 nM, the koff was 0.425 s⁻¹ and the kon came to 1.03e+07 M⁻¹ s⁻¹. Besides, in experiment [2], the Kd was found to be 1310 nM, the koff came out at 0.493 s⁻¹ and the kon worked out at 375000 M⁻¹ s⁻¹.

B14: 6470gL3gH46 (antibody, V domains shown)
VH: EVQLLESGGGLVQPGGSLRLSCAASGIDLSSHDMYWVRQAPGKGLEYIGAIYASGSTYYASWAKGRFTISRDNSKNTVYLQMNSLRAEDTAVYYCARIHYGNSGGLWGQGTLVTVSS
VL: DIQMTQSPSSLSASVGDRVTITCQASQSVYKNNYLAWFQQKPGKAPKQLIYGASTLASGVPSRFSGSGSGTQFTLTISSLQPEDFATYYCAGYKGGRNDGFAFGGGTKVEIKR
In the case of B14, the Kd in experiment [3] was found to be 0.316 nM.

B15: 6470gL6gH23 (antibody, V domains shown)
VH: EVQLLESGGGLVQPGGSLRLSCAVSGIDLSSHDMYWVRQAPGKGLEYIGAIYASGSTYYASWAKGRFTISRDNSKNTVYLQMNSLRAEDTAVYYCARIHYGNSGGLWGQGTLVTVSS
VL: DIQMTQSPSSLSASVGDRVTITCQASQSVYKNNYLAWFQQKPGKAPKSLIYGASTLASGVPSRFSGSGSGTQFTLTISSLQPEDFATYYCAGYKGGRNDGFAFGGGTKVEIKR
B15: the Kd in experiment [3] is 0.547 nM.

B16: 6470gL3gH50 (antibody, V domains shown)
VH: EVQLLESGGGLVQPGGSLRLSCAASGIDLSSHDMYWVRQAPGKGLEYIGAIYASGSTYYASWAKGRFTISRDSSKNTLYLQMNSLRAEDTAVYYCARIHYGNSGGLWGQGTLVTVSS
VL: DIQMTQSPSSLSASVGDRVTITCQASQSVYKNNYLAWFQQKPGKAPKQLIYGASTLASGVPSRFSGSGSGTQFTLTISSLQPEDFATYYCAGYKGGRNDGFAFGGGTKVEIKR
In the case of B16, the dissociation constant Kd in experiment [3] came out at 0.58 nM.
